Test results as given in patent US20240270846A1 (published 2024).

B1: CE115HA000/GLS3000 F55H one-arm antibody (antibody, human IgG1, kappa, L234A L235A, N297A, name in Kabat numbering)
heavy: QVQLVESGGGVVQPGRSLRLSCAASGFTFSNAWMHWVRQAPGKGLEWVAQIKAKSNNYATYYAESVKGRFTISRDDSKNSLYLQMNSLKTEDTAVYYCRYVHYGAYYGVDAWGQGTTVTVSSASTKGPSVFPLAPSSKSTSGGTAALGCLVKDYFPEPVTVSWNSGALTSGVHTFPAVLQSSGLYSLSSVVTVPSSSLGTQTYICNVNHKPSNTKVDKKVEPKSCDKTHTCPPCPAPEAAGGPSVFLFPPKPKDTLMISRTPEVTCVVVDVSHEDPEVKFNWYVDGVEVHNAKTKPREEQYASTYRVVSVLTVLHQDWLNGKEYKCKVSNKALPAPIEKTISKAKGQPREPQVYTLPPSRCELTKNQVSLSCAVKGFYPSDIAVEWESNGQPENNYKTTPPVLDSDGSFFLVSKLTVDKSRWQQGNVFSCSVMHEALHNHYTQKSLSLSPDYKDDDDK
chain: EPKSSDKTHTCPPCPAPELLGGPSVFLFPPKPKDTLMISRTPEVTCVVVDVSHEDPEVKFNWYVDGVEVHNAKTKPREEQYNSTYRVVSVLTVLHQDWLNGKEYKCKVSNKALPAPIEKTISKAKGQPREPQVCTLPPSRDELTKNQVSLWCLVKGFYPSDIAVEWESNGQPENNYKTTPPVLDSDGSFFLYSKLTVDKSRWQQGNVFSCSVMHEALHNRYTQKSLSLSP
light: DIVMTQSPLSLPVTPGEPASISCRSSQSLVHSNRNTYLHWYQQKPGQAPRLLIYKVSNRHSGVPDRFSGSGSGTDFTLKISRVEAEDVGVYYCGQGTQVPYTFGQGTKLEIKRTVAAPSVFIFPPSDEQLKSGTASVVCLLNNFYPREAKVQWKVDNALQSGNSQESVTEQDSKDSTYSLSSTLTLSKADYEKHKVYACEVTHQGLSSPVTKSFNRGEC
notes: one-arm IgG1
B2: CE115HA000/GLS3000 F55N one-arm antibody (antibody, human IgG1, kappa, L234A L235A, N297A, name in Kabat numbering)
heavy: QVQLVESGGGVVQPGRSLRLSCAASGFTFSNAWMHWVRQAPGKGLEWVAQIKAKSNNYATYYAESVKGRFTISRDDSKNSLYLQMNSLKTEDTAVYYCRYVHYGAYYGVDAWGQGTTVTVSSASTKGPSVFPLAPSSKSTSGGTAALGCLVKDYFPEPVTVSWNSGALTSGVHTFPAVLQSSGLYSLSSVVTVPSSSLGTQTYICNVNHKPSNTKVDKKVEPKSCDKTHTCPPCPAPEAAGGPSVFLFPPKPKDTLMISRTPEVTCVVVDVSHEDPEVKFNWYVDGVEVHNAKTKPREEQYASTYRVVSVLTVLHQDWLNGKEYKCKVSNKALPAPIEKTISKAKGQPREPQVYTLPPSRCELTKNQVSLSCAVKGFYPSDIAVEWESNGQPENNYKTTPPVLDSDGSFFLVSKLTVDKSRWQQGNVFSCSVMHEALHNHYTQKSLSLSPDYKDDDDK
chain: EPKSSDKTHTCPPCPAPELLGGPSVFLFPPKPKDTLMISRTPEVTCVVVDVSHEDPEVKFNWYVDGVEVHNAKTKPREEQYNSTYRVVSVLTVLHQDWLNGKEYKCKVSNKALPAPIEKTISKAKGQPREPQVCTLPPSRDELTKNQVSLWCLVKGFYPSDIAVEWESNGQPENNYKTTPPVLDSDGSFFLYSKLTVDKSRWQQGNVFSCSVMHEALHNRYTQKSLSLSP
light: DIVMTQSPLSLPVTPGEPASISCRSSQSLVHSNRNTYLHWYQQKPGQAPRLLIYKVSNRNSGVPDRFSGSGSGTDFTLKISRVEAEDVGVYYCGQGTQVPYTFGQGTKLEIKRTVAAPSVFIFPPSDEQLKSGTASVVCLLNNFYPREAKVQWKVDNALQSGNSQESVTEQDSKDSTYSLSSTLTLSKADYEKHKVYACEVTHQGLSSPVTKSFNRGEC
notes: one-arm IgG1
B3: CE115HA000/GLS3000 F55I one-arm antibody (antibody, human IgG1, kappa, L234A L235A, N297A, name in Kabat numbering)
heavy: QVQLVESGGGVVQPGRSLRLSCAASGFTFSNAWMHWVRQAPGKGLEWVAQIKAKSNNYATYYAESVKGRFTISRDDSKNSLYLQMNSLKTEDTAVYYCRYVHYGAYYGVDAWGQGTTVTVSSASTKGPSVFPLAPSSKSTSGGTAALGCLVKDYFPEPVTVSWNSGALTSGVHTFPAVLQSSGLYSLSSVVTVPSSSLGTQTYICNVNHKPSNTKVDKKVEPKSCDKTHTCPPCPAPEAAGGPSVFLFPPKPKDTLMISRTPEVTCVVVDVSHEDPEVKFNWYVDGVEVHNAKTKPREEQYASTYRVVSVLTVLHQDWLNGKEYKCKVSNKALPAPIEKTISKAKGQPREPQVYTLPPSRCELTKNQVSLSCAVKGFYPSDIAVEWESNGQPENNYKTTPPVLDSDGSFFLVSKLTVDKSRWQQGNVFSCSVMHEALHNHYTQKSLSLSPDYKDDDDK
chain: EPKSSDKTHTCPPCPAPELLGGPSVFLFPPKPKDTLMISRTPEVTCVVVDVSHEDPEVKFNWYVDGVEVHNAKTKPREEQYNSTYRVVSVLTVLHQDWLNGKEYKCKVSNKALPAPIEKTISKAKGQPREPQVCTLPPSRDELTKNQVSLWCLVKGFYPSDIAVEWESNGQPENNYKTTPPVLDSDGSFFLYSKLTVDKSRWQQGNVFSCSVMHEALHNRYTQKSLSLSP
light: DIVMTQSPLSLPVTPGEPASISCRSSQSLVHSNRNTYLHWYQQKPGQAPRLLIYKVSNRISGVPDRFSGSGSGTDFTLKISRVEAEDVGVYYCGQGTQVPYTFGQGTKLEIKRTVAAPSVFIFPPSDEQLKSGTASVVCLLNNFYPREAKVQWKVDNALQSGNSQESVTEQDSKDSTYSLSSTLTLSKADYEKHKVYACEVTHQGLSSPVTKSFNRGEC
notes: one-arm IgG1
B4: CE115HA000/GLS3000 F55L one-arm antibody (antibody, human IgG1, kappa, L234A L235A, N297A, name in Kabat numbering)
heavy: QVQLVESGGGVVQPGRSLRLSCAASGFTFSNAWMHWVRQAPGKGLEWVAQIKAKSNNYATYYAESVKGRFTISRDDSKNSLYLQMNSLKTEDTAVYYCRYVHYGAYYGVDAWGQGTTVTVSSASTKGPSVFPLAPSSKSTSGGTAALGCLVKDYFPEPVTVSWNSGALTSGVHTFPAVLQSSGLYSLSSVVTVPSSSLGTQTYICNVNHKPSNTKVDKKVEPKSCDKTHTCPPCPAPEAAGGPSVFLFPPKPKDTLMISRTPEVTCVVVDVSHEDPEVKFNWYVDGVEVHNAKTKPREEQYASTYRVVSVLTVLHQDWLNGKEYKCKVSNKALPAPIEKTISKAKGQPREPQVYTLPPSRCELTKNQVSLSCAVKGFYPSDIAVEWESNGQPENNYKTTPPVLDSDGSFFLVSKLTVDKSRWQQGNVFSCSVMHEALHNHYTQKSLSLSPDYKDDDDK
chain: EPKSSDKTHTCPPCPAPELLGGPSVFLFPPKPKDTLMISRTPEVTCVVVDVSHEDPEVKFNWYVDGVEVHNAKTKPREEQYNSTYRVVSVLTVLHQDWLNGKEYKCKVSNKALPAPIEKTISKAKGQPREPQVCTLPPSRDELTKNQVSLWCLVKGFYPSDIAVEWESNGQPENNYKTTPPVLDSDGSFFLYSKLTVDKSRWQQGNVFSCSVMHEALHNRYTQKSLSLSP
light: DIVMTQSPLSLPVTPGEPASISCRSSQSLVHSNRNTYLHWYQQKPGQAPRLLIYKVSNRLSGVPDRFSGSGSGTDFTLKISRVEAEDVGVYYCGQGTQVPYTFGQGTKLEIKRTVAAPSVFIFPPSDEQLKSGTASVVCLLNNFYPREAKVQWKVDNALQSGNSQESVTEQDSKDSTYSLSSTLTLSKADYEKHKVYACEVTHQGLSSPVTKSFNRGEC
notes: one-arm IgG1
B5: CE115HA000/GLS3000 F55M one-arm antibody (antibody, human IgG1, kappa, L234A L235A, N297A, name in Kabat numbering)
heavy: QVQLVESGGGVVQPGRSLRLSCAASGFTFSNAWMHWVRQAPGKGLEWVAQIKAKSNNYATYYAESVKGRFTISRDDSKNSLYLQMNSLKTEDTAVYYCRYVHYGAYYGVDAWGQGTTVTVSSASTKGPSVFPLAPSSKSTSGGTAALGCLVKDYFPEPVTVSWNSGALTSGVHTFPAVLQSSGLYSLSSVVTVPSSSLGTQTYICNVNHKPSNTKVDKKVEPKSCDKTHTCPPCPAPEAAGGPSVFLFPPKPKDTLMISRTPEVTCVVVDVSHEDPEVKFNWYVDGVEVHNAKTKPREEQYASTYRVVSVLTVLHQDWLNGKEYKCKVSNKALPAPIEKTISKAKGQPREPQVYTLPPSRCELTKNQVSLSCAVKGFYPSDIAVEWESNGQPENNYKTTPPVLDSDGSFFLVSKLTVDKSRWQQGNVFSCSVMHEALHNHYTQKSLSLSPDYKDDDDK
chain: EPKSSDKTHTCPPCPAPELLGGPSVFLFPPKPKDTLMISRTPEVTCVVVDVSHEDPEVKFNWYVDGVEVHNAKTKPREEQYNSTYRVVSVLTVLHQDWLNGKEYKCKVSNKALPAPIEKTISKAKGQPREPQVCTLPPSRDELTKNQVSLWCLVKGFYPSDIAVEWESNGQPENNYKTTPPVLDSDGSFFLYSKLTVDKSRWQQGNVFSCSVMHEALHNRYTQKSLSLSP
light: DIVMTQSPLSLPVTPGEPASISCRSSQSLVHSNRNTYLHWYQQKPGQAPRLLIYKVSNRMSGVPDRFSGSGSGTDFTLKISRVEAEDVGVYYCGQGTQVPYTFGQGTKLEIKRTVAAPSVFIFPPSDEQLKSGTASVVCLLNNFYPREAKVQWKVDNALQSGNSQESVTEQDSKDSTYSLSSTLTLSKADYEKHKVYACEVTHQGLSSPVTKSFNRGEC
notes: one-arm IgG1
B6: CE115HA000/GLS3000 F55K one-arm antibody (antibody, human IgG1, kappa, L234A L235A, N297A, name in Kabat numbering)
heavy: QVQLVESGGGVVQPGRSLRLSCAASGFTFSNAWMHWVRQAPGKGLEWVAQIKAKSNNYATYYAESVKGRFTISRDDSKNSLYLQMNSLKTEDTAVYYCRYVHYGAYYGVDAWGQGTTVTVSSASTKGPSVFPLAPSSKSTSGGTAALGCLVKDYFPEPVTVSWNSGALTSGVHTFPAVLQSSGLYSLSSVVTVPSSSLGTQTYICNVNHKPSNTKVDKKVEPKSCDKTHTCPPCPAPEAAGGPSVFLFPPKPKDTLMISRTPEVTCVVVDVSHEDPEVKFNWYVDGVEVHNAKTKPREEQYASTYRVVSVLTVLHQDWLNGKEYKCKVSNKALPAPIEKTISKAKGQPREPQVYTLPPSRCELTKNQVSLSCAVKGFYPSDIAVEWESNGQPENNYKTTPPVLDSDGSFFLVSKLTVDKSRWQQGNVFSCSVMHEALHNHYTQKSLSLSPDYKDDDDK
chain: EPKSSDKTHTCPPCPAPELLGGPSVFLFPPKPKDTLMISRTPEVTCVVVDVSHEDPEVKFNWYVDGVEVHNAKTKPREEQYNSTYRVVSVLTVLHQDWLNGKEYKCKVSNKALPAPIEKTISKAKGQPREPQVCTLPPSRDELTKNQVSLWCLVKGFYPSDIAVEWESNGQPENNYKTTPPVLDSDGSFFLYSKLTVDKSRWQQGNVFSCSVMHEALHNRYTQKSLSLSP
light: DIVMTQSPLSLPVTPGEPASISCRSSQSLVHSNRNTYLHWYQQKPGQAPRLLIYKVSNRKSGVPDRFSGSGSGTDFTLKISRVEAEDVGVYYCGQGTQVPYTFGQGTKLEIKRTVAAPSVFIFPPSDEQLKSGTASVVCLLNNFYPREAKVQWKVDNALQSGNSQESVTEQDSKDSTYSLSSTLTLSKADYEKHKVYACEVTHQGLSSPVTKSFNRGEC
notes: one-arm IgG1

molecular target: T1, CD3 epsilon homodimer protein (UniProt P07766 23-126); test: SPR (Biacore T200), CD3e homodimer on CM4 chip, antibody as analyte; KD ratio vs unaltered GLS3000;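 further: CD3 epsilon homodimer amine-coupled to the sensor surface, antibodies injected as analyte at 25 °C with HBS-EP+ running buffer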
T1 construct: also called CD3 (CD3 epsilon)
T1 sequence (P07766 23-126): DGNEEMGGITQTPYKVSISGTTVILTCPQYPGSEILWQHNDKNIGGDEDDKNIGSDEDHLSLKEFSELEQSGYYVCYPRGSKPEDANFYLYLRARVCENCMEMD

Compared with B1, B2 is lower in “KD ratio to GLS3000” value: 1.02 ratio for the first, 0.91 ratio for the second.

Compared with B3, B4 is higher in “KD ratio to GLS3000” value: 1.28 ratio for the first, 1.43 ratio for the second.

Compared with B5, B6 is lower in “KD ratio to GLS3000” value: 1.29 ratio for the first, 1.22 ratio for the second.
